Experimental data from PMC3035459 (Nucleic Acids Research, 2010).

Biological target: the molecule itself
Experiment: crystal structure

B1: Methanocaldococcus jannaschii O-phosphoseryl-tRNA kinase (enzyme, UniProt Q58933 1-248, looked up)
chain: MLIILTGLPGVGKSTFSKNLAKILSKNNIDVIVLGSDLIRESFPVWKEKYEEFIKKSTYRLIDSALKNYWVIVDDTNYYNSMRRDLINIAKKYNKNYAIIYLKASLDVLIRRNIERGEKIPNEVIKKMYEKFDEPGKKYKWDEPFLIIDTTKDIDFNEIAKKLIEKSKEIPKFYVLEENKNKNNNISDKIDKETRKIVSEYIKSKKLDKDKIKEVVELRKEFLKKIKKMEEVDADRVLKEFKDLLNSY
B1 was tested. Which “stoichiometry N” value did it give?
Its value is 2.
